Source: patent US20260365696A1, “INHIBITORS OF PTP1B / NCK1 INTERACTION AND METHODS OF MAKING AND USING SAME” (Radella Pharmaceuticals LLC, priority 2023, published 2026)

T1: NCK1 SH3-2 domain (human)
T1 chain: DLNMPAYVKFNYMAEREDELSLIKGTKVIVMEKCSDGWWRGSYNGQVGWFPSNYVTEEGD


Molecular target: T1, NCK1 SH3-2 domain
Assay: ITC
Details: not given
For Ac-PPRPPHR-NH2 [MH049], the Kd was under 300 µM.
Ac-PPRPPWR-NH2 [MH050] showed a Kd of under 300 µM.
Ac-PPRPPDR-NH2 [MH085] showed a Kd of under 600 µM.
Ac-PPRPPER-NH2 [MH051] was tested, and the Kd was under 300 µM.
For Ac-PPRPPMR-NH2 [MH112], the Kd was under 300 µM.
In the case of Ac-PPRPPQR-NH2 [MH088], the Kd is reported as under 300 µM.
Work on Ac-PPRPPCR-NH2 [MH054] yielded a Kd of under 300 µM.
Work on Ac-PPRPPVR-NH2 [MH126] yielded a Kd of under 300 µM.
In the case of Ac-PPRPPFR-NH2 [MH105], the Kd is reported as under 600 µM.
Work on Ac-PPRPPTR-NH2 [MH116] yielded a Kd of under 300 µM.
Molecule Ac-PPRPPGR-NH2 [MH094] has a Kd of over 600 µM.
Ac-PPRPPSR-NH2 [MH052] showed a Kd of under 300 µM.

What follows are molecules tested against T2, SH3-2 domain of NCK1 (Homo sapiens, UniProt P16333) (assay: Isothermal titration calorimetry (ITC) binding to NCK1 SH3-2 domain). Details: Alanine scanning of the MD20 6-mer peptide; ITC, 25 °C, pH 8.0.
T2 construct: To amplify the NCK1 SH3-2 domain, the primers; 10xHis tag with TEV site (vector pSF-OXB20-NH2-10HIS) (N, cleaved yes); made in house; host or cells: E. coli C43(DE3)
From the text: Human PTP1B cDNA (NM_002827) and human NCK1 cDNA (NM 006153) were obtained (Origene, MD, USA). PTP1B Primers were designed to amplify the ORFs with added homology to the cut vector (EcoRI-digested pSF-OXB20-NH2-10HIS) in the forward primer sequence. To amplify full-length PTP1B, the primers ptp1b_FL_fwd ([…]) (SEQ ID NO: 159) and ptp1b_FL_rev ([…]) (SEQ ID NO: 160) were used. To amplify truncations of PTP1B, the following primer pairs were used: ptp1b_FL-Fwd and one of Ptplb_323stop_rev (gtgcaggaggagttcgaatt[…]) (SEQ ID NO: 161), ptp1b_344stop_rev ([…]) (SEQ ID NO: 162) or ptp1b_278stop_rev([…]) (SEQ ID NO: 163). To amplify the NCK1 SH3-2 domain, the primers ncklsh32_fwd ([…]) (SEQ ID NO: 164) and ncklsh32_rev ([…]) (SEQ ID NO: 165) were used. The amplified fragments were purified using a DNA clean-up kit according to manufacturer's instructions (QIAquick PCR purification kit, Qiagen).
To produce and purify fusion proteins, a culture was inoculated with 1% of overnight-cultured inoculum. Protein expression was carried out under the conditions described above, scaled up as necessary. Cells expressing the recombinant proteins were harvested in 50 mL tubes by centrifugation and stored at −80 °C. Cells containing the expressed gene product were thawed over ice and resuspended in Extraction buffer (10 mM Tris, pH 7.4 or 10 mM Sodium Phosphate, pH 8.0; 300 mM NaCl, 1 mM DTT or TCEP; 0-10% glycerol and 1 μg lysozyme) and sonicated over ice (4 °C) for 3 min total using pulses of 5 s with 15 s intervals, using a wide probe at 15 amplitude microns (Soniprep 150, MSE). Insoluble material was removed from the lysate by centrifugation at 20K rpm for 20-60 min at 4 °C. Supernatant was filtered through a 0.22 μm PVDF filter membrane and applied to 1-2 5 mL HisTrap FF Crude (Cytiva) prepacked Ni columns and connected to an AKTA explorer. After thorough washing with binding buffer (10 mM Tris, pH 7.4 or 10 mM Sodium Phosphate, pH 8.0; 300 mM NaCl; 1 mM DTT or TCEP and 25 mM Imidazole), protein was eluted using elution buffer (10 mM Tris, pH 7.4 or 10 mM Sodium Phosphate, pH 8.0; 150-300 mM NaCl; 1 mM DTT or TCEP and 250 mM Imidazole). Fractions containing protein of interest were confirmed by SDS PAGE. Protein was diluted with GF buffer (10 mM Tris, pH 7.4 or 10 mM Sodium Phosphate, pH 8.0; 150-300 mM NaCl) and subjected to TEV protease treatment overnight at 4-10 °C. Following proteolytic digestion, HIS-tag and TEV protease were removed by filtration through a clean 5 mL HisTrap FF Crude (Cytiva) prepacked Ni column. Protein was concentrated on a PES ultrafiltration device by centrifugation at 4000 rpm at 4 °C, and protein was polished via a HiPrep S-100 26/60 (Cytiva) using GF buffer (as described above). Purified proteins were concentrated using ultrafiltration, and protein concentration was determined using ultraviolet-visible spectroscopy. The integrity and identity of all proteins were verified by mass spectrographic analysis.
Isothermal titration calorimetry (ITC) was used to determine binding affinities for peptides against the SH3-2 domain of NCK1. Experiments were conducted at 25 °C using either a MicroCal iTC200 or MicroCal PEAQ-ITC calorimeter. The buffer used for all ITC experiments was 10 mM sodium [COMPOUND LEFT OUT] mM sodium chloride (pH=8.0). A series of peptides (concentration 3-7.5 mM) were titrated in to NCK1 SH3-2 domain (concentration 0.125-0.3 mM) using the following conditions: one injection of 0.2 μL followed by 19 injections of 2 μL, 120-150 seconds spacing between injections, at 25 °C. The data were fit using analysis software provided by the manufacturer and affinity values were calculated. The best fitting occurred when the number of sites was between 0.8 and 1.2. The experiments were repeated twice for a total of three times, and the average binding affinity for each peptide was generated. […]
Ac-PRAPKR-NH2 [MH010, Ac-PRAPKR-NH2] gave a Kd of over 1000 µM.

Same assay, conditions: substitutions at position 3 of MD18; ITC, 25 °C, pH 8.0
With Ac-PPYPPKR-NH2 [MH120, Ac-PPYPPKR-NH2] the Kd was at most 300 µM.

Same assay, conditions: substitutions at position 4 of MD18 in a 7-mer; ITC, 25 °C, pH 8.0
Work on Ac-PPRNPKR-NH2 [MH127, Ac-PPRNPKR-NH2] yielded a Kd of over 1000 µM.
With Ac-PPRFPKR-NH2 [MH067, Ac-PPRFPKR-NH2] the Kd was 600 to 1000 µM.

Same assay, conditions: substitutions at position 8 of the 8-mer MH063; ITC, 25 °C, pH 8.0; certain peptides tested one to three times
For Ac-PPRPPKRS-NH2 [MH152], the Kd was at most 300 µM.

Molecular target: T1, NCK1 SH3-2 domain
Assay: ITC
Details: not given
Remark: another data set of the same source
For Ac-PPEHIPPPPRPPKR-NH2 [MH030], the Kd was under 300 µM.
Ac-RPPK-NH2 [MH016] showed a Kd of over 1000 µM.
Work on Ac-PEHIPPPPRPPKR-NH2 [MH029] yielded a Kd of under 300 µM.
With RPP [MH020] the Kd was over 1000 µM.
Ac-PPKR-NH2 [MH017] was tested, and the Kd was over 1000 µM.
Molecule Ac-RPPKR-NH2 [MH018] has a Kd of over 1000 µM.
Ac-HIPPPPRPPKR-NH2 [MH027] showed a Kd of under 300 µM.
Molecule PKR [MH014] has a Kd of over 1000 µM.
With Ac-PPPPRPPKR-NH2 [MH025] the Kd was under 300 µM.
With Ac-PPPRPPKR-NH2 [MH024] the Kd was under 300 µM.
In the case of Ac-PRPP-NH2 [MH021], the Kd is reported as over 1000 µM.
With Ac-PRPPK-NH2 [MH022] the Kd was over 1000 µM.
Ac-IPPPPRPPKR-NH2 [MH026] showed a Kd of under 300 µM.
Molecule PPK [MH015] has a Kd of over 1000 µM.
For Ac-EHIPPPPRPPKR-NH2 [MH028], the Kd was under 300 µM.
In the case of PRP [MH019], the Kd is reported as over 1000 µM.

Molecular target: T1, NCK1 SH3-2 domain
Assay: ITC
Details: not given
Remark: another data set of the same source
For Ac-RPRPPKR-NH2 [MH068], the Kd was under 300 µM.
With Ac-KPRPPKR-NH2 [MH103] the Kd was under 300 µM.
Work on Ac-CPRPPKR-NH2 [MH070] yielded a Kd of under 300 µM.
Molecule Ac-GPRPPKR-NH2 [MH091] has a Kd of under 300 µM.
With Ac-HPRPPKR-NH2 [MH072] the Kd was under 300 µM.
For Ac-WPRPPKR-NH2 [MH117], the Kd was under 300 µM.
Ac-TPRPPKR-NH2 [MH113] showed a Kd of under 300 µM.
Ac-QPRPPKR-NH2 [MH086] was tested, and the Kd was under 300 µM.
For Ac-SPRPPKR-NH2 [MH074], the Kd was under 300 µM.
In the case of Ac-LPRPPKR-NH2 [MH099], the Kd is reported as under 600 µM.
Ac-FPRPPKR-NH2 [MH073] showed a Kd of under 300 µM.
Work on Ac-DPRPPKR-NH2 [MH083] yielded a Kd of under 300 µM.
Work on Ac-VPRPPKR-NH2 [MH123] yielded a Kd of under 300 µM.
Ac-EPRPPKR-NH2 [MH071] gave a Kd of under 300 µM.
Ac-NPRPPKR-NH2 [MH069] showed a Kd of under 300 µM.
Ac-MPRPPKR-NH2 [MH109] showed a Kd of under 300 µM.
For Ac-IPRPPKR-NH2 [MH095], the Kd was under 300 µM.
Ac-YPRPPKR-NH2 [MH119] was tested, and the Kd was under 300 µM.
